Experimental data as given in publication PMC11749891 (Nature structural & molecular biology, 2022).
* marks the point of attachment. Biotin = O=C1N[C@H]2[C@H](CS[C@H]2CCCCC(=O)*)N1; Ahx = NCCCCCC(=O)O

T1: Recombinant GFP-tagged Sov core NTD (aa 14–90), NTD Δ-SIMs (D. melanogaster, UniProt Q9W3W6 14-90)
T1 sequence (looked up): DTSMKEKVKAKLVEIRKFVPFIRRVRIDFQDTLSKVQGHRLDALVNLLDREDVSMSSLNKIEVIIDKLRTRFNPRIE

T2: C-terminal His tagged Sov NTD (aa 14–90) (D. melanogaster, UniProt Q9W3W6 14-90)
T2 sequence (looked up): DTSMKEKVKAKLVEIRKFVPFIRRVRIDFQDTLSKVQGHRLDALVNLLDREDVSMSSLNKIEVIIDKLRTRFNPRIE


Columns and labels:
[1] = target: T1, Recombinant GFP-tagged Sov core NTD (aa …); assay: pull-down
[2] = target: T2, C-terminal His tagged Sov NTD (aa 14–90); assay: ITC

Row | Binder | binding result [1] | stoichiometry N [2]
1 | {Biotin-Ahx}-KMEPKIKEDADNAMLDSLLADPFENNS-NH2 (peptide, UniProt Q9W2H9 82-108, looked up, SMILES CC[C@H](C)[C@H](NC(=O)[C@H](CCCCN)NC(=O)[C@@H]1CCCN1C(=O)[C@H](CCC(=O)O)NC(=O)[C@H](CCSC)NC(=O)[C@H](CCCCN)NC(=O)CCCCCNC(=O)CCCC[C@@H]1SC[C@@H]2NC(=O)N[C@@H]21)C(=O)N[C@@H](CCCCN)C(=O)N[C@@H](CCC(=O)O)C(=O)N[C@@H](CC(=O)O)C(=O)N[C@@H](C)C(=O)N[C@@H](CC(=O)O)C(=O)N[C@@H](CC(N)=O)C(=O)N[C@@H](C)C(=O)N[C@@H](CCSC)C(=O)N[C@@H](CC(C)C)C(=O)N[C@@H](CC(=O)O)C(=O)N[C@@H](CO)C(=O)N[C@@H](CC(C)C)C(=O)N[C@@H](CC(C)C)C(=O)N[C@@H](C)C(=O)N[C@@H](CC(=O)O)C(=O)N1CCC[C@H]1C(=O)N[C@@H](Cc1ccccc1)C(=O)N[C@@H](CCC(=O)O)C(=O)N[C@@H](CC(N)=O)C(=O)N[C@@H](CC(N)=O)C(=O)N[C@@H](CO)C(N)=O) [Panx LxxLL peptide (aa 82–108), wildtype, biotinylated] | binds | 
2 | KMEPKIKEDADNAMLDSLLADPFENNS (peptide, UniProt Q9W2H9 82-108, looked up) [His-SUMO tagged Panx LxxLL peptide (aa 82–108), wildtype] |  | 1.05 ± 0.03
